From paper PMC1933402 (The EMBO Journal, 2007)

B1: APPL1 BAR domain (residues 5−265), His tag removed (domain or fragment, human)
chain: GSHMDKLPIEETLEDSPQTRSLLGVFEEDATAISNYMNQLYQAMHRIYDAQNELSAATHLTSKLLKEYEKQRFPLGGDDEVMSSTLQQFSKVIDELSSCHAVLSTQLADAMMFPITQFKERDLKEILTLKEVFQIASNDHDAAINRYSRLSKKRENDKVKYEVTEDVYTSRKKQHQTMMHYFCALNTLQYKKKIALLEPLLGYMQAQISFFKMGSENLNEQLEEFLANIGTSVQNVRREMDSDIETMQQTIEDLEVASDPLYVPD
B2: full-length Rab5-Q79L coupled to the SPR biosensor chip (natural protein, human, UniProt P20339-1 1-215, looked up)
chain: MASRGATRPNGPNTGNKICQFKLVLLGESAVGKSSLVLRFVKGQFHEFQESTIGAAFLTQTVCLDDTTVKFEIWDTAGLERYHSLAPMYYRGAQAAIVVYDITNEESFARAKNWVKELQRQASPNIVIALSGNKADLANKRAVDFQEAQSYADDNSLLFMETSAKTSMNVNEIFMAIAKKLPKNEPQNPGANSARGRGVDLTEPTQPTRNQCCSN

Experiments:
AUC = target: the molecule itself; assay: AUC
[1] = target: T1, His-tagged WT APPL1 (5−419) (human, UniProt Q9UKG1 5-419); assay: SPR
T1 sequence (looked up): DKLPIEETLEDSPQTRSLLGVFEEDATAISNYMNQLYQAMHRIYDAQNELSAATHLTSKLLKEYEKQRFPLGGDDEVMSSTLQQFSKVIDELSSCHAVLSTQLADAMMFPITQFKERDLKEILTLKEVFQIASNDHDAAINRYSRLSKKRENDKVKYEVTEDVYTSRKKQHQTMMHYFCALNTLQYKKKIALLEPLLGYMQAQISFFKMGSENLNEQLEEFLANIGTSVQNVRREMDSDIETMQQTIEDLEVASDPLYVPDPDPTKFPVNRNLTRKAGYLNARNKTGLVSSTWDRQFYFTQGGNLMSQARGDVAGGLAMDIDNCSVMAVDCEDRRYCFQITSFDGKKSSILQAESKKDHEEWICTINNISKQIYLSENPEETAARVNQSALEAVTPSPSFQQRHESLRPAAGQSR

Binder	Kd (AUC) [nM]	Kd [1] [nM]	koff [1] [s⁻¹]	kon [1] [M⁻¹ s⁻¹]
B1	130	–	–	–
B2	–	900 ± 700	0.0012	1300
